T1: truncated Mch4-M134
T1 chain: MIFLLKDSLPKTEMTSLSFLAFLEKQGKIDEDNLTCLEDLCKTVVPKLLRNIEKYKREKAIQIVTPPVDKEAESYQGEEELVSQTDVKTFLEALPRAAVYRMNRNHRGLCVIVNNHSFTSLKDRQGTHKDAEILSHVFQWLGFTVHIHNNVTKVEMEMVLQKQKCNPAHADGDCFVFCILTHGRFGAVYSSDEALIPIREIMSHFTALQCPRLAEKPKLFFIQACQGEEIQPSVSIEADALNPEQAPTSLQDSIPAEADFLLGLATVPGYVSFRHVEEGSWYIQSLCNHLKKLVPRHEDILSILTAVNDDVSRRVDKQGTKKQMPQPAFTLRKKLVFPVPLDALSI

T2: DEVD-AMC (not fully specified)
T2 chain: DEVD

T3: YVAD-AMC (not fully specified)
T3 chain: YVAD

T4: proMch4 (35S-labeled wild type Mch4)
T4 chain: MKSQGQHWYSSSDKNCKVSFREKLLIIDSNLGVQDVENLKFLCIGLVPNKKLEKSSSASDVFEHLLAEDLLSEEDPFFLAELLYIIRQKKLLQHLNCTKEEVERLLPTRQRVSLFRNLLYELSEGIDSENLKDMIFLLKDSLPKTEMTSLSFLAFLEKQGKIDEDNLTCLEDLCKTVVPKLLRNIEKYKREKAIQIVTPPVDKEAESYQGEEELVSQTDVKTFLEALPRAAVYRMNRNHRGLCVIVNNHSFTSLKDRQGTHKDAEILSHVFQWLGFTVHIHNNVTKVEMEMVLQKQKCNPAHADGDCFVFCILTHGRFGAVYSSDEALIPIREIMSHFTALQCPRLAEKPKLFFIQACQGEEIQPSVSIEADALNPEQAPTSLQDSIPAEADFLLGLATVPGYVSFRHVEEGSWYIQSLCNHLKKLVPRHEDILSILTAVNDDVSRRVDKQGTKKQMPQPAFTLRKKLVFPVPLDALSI


Key:
truncated Mch4-M134 = target: T1, truncated Mch4-M134
DEVD-AMC = target: T2, DEVD-AMC
YVAD-AMC = target: T3, YVAD-AMC
[1] = target: T4, proMch4 (35S-labeled wild type Mch4)

Protein | cleavage of proenzyme [1] | cleavage of 35S-labeled proenzyme, SDS-PAGE and autoradiography [1] | also measured
bacterially expressed recombinant Mch4 (GST-Mch4 fusion protein) (protein) IQIVTPPVDKEAESYQGEEELVSQTDVKTFLEALPRAAVYRMNRNHRGLCVIVNNHSFTSLKDRQGTHKDAEILSHVFQWLGFTVHIHNNVTKVEMEMVLQKQKCNPAHADGDCFVFCILTHGRFGAVYSSDEALIPIREIMSHFTALQCPRLAEKPKLFFIQACQGEEIQPSVSIEADALNPEQAPTSLQDSIPAEADFLLGLATVPGYVSFRHVEEGSWYIQSLCNHLKKLVPRHEDILSILTAVNDDVSRRVDKQGTKKQMPQPAFTLRKKLVFPVPLDALSI | – | – | cleavage of 35S-labeled proenzyme, SDS-PAGE and autoradiography (truncated Mch4-M134): Although Mch4 was able to cleave proMch4, its activity towards its proenzyme was significantly lower than that towards proCPP32 and proMch3 (FIG. 5B, lane 7); Km (DEVD-AMC) (DEVD-AMC): 130 µM; Vmax/Km (DEVD-AMC): Vmax/KmMch4=18; Km (YVAD-AMC) (YVAD-AMC): 150 µM
TX (protein) QISPNKKAHPNMEAGPPESGESTDALKLCPHEEFLRLCKERAEEIYPIKERNNRTRLALIICNTEFDHLPPRNGADFDITGMKELLEGLDYSVDVEENLTARDMESALRAFATRPEHKSSDSTFLVLMSHGILEGICGTVHDEKKPDVLLYDTIFQIFNNRNCLSLKDKPKVIIVQACRGANRGELWVRDSPASLEVASSQSSENLEEDAVYKTHVEKDFIAFCSSTPHNVSWRDSTMGSIFITQLITCFQKYSWCCHLEEVFRKVQQSFETPRAKAQMPTIERLSMTRYFYLFPGN | none of these enzymes were able to efficiently process proMch4 | – | –
recombinant Mch3 (protein) AKPDRSSFVPSLFSKKKKNVTMRSIKTTRDRVPTYQYNMNFEKLGKCIIINNKNFDKVTGMGVRNGTDKDAEALFKCFRSLGFDVIVYNDCSCAKMQDLLKKASEEDHTNAACFACILLSHGEENVIYGKDGVTPIKDLTAHFRGDRCKTLLEKPKLFFIQACRGTELDDGIQADSGPINDTDANPRYKIPVEADFLFAYSTVPGYYSWRSPGRGSWFVQALCSILEEHGKDLEIMQILTRVNDRVARHFESQSDDPHFHEKKQIPCVVSMLTKELYFSQ | – | there was no significant cleavage of proMch4 when incubated with recombinant CPP32 or Mch3 enzymes | –
ICE (protein) NPAMPTSSGSEGNVKLCSLEEAQRIWKQKSAEIYPIMDKSSRTRLALIICNEEFDSIPRRTGAEVDITGMTMLLQNLGYSVDVKKNLTASDMTTELEAFAHRPEHKTSDSTFLVFMSHGIREGICGKKHSEQVPDILQLNAIFNMLNTKNCPSLKDKPKVIIIQACRGDSPGVVWFKDSVGVSGNLSLPTTEEFEDDAIKKAHIEKDFIAFCSSTPDNVSWRHPTMGSVFIGRLIEHMQEYACSCDVEEIFRKVRFSFEQPDGRAQMPTTERVTLTRCFYLFPGH | none of these enzymes were able to efficiently process proMch4 | – | –
Mch2 (protein) AFYKREMFDPAEKYKMDHRRRGIALIFNHERFFWHLTLPERRGTCADRDNLTRRFSDLGFEVKCFNDLKAEELLLKIHEVSTVSHADADCFVCVFLSHGEGNHIYAYDAKIEIQTLTGLFKGDKCHSLVGKPKIFIIQACRGNQHDVPVIPLDVVDNQTEKLDTNITEVDAASVYTLPAGADFLMCYSVAEGYYSHRETVNGSWYIQDLCEMLGKYGSSLEFTELLTLVNRKVSQRRVDFCKDPSAIGKKQVPCFASMLTKKLHFFPKSN | none of these enzymes were able to efficiently process proMch4 | – | –
recombinant CPP32 (protein) SGISLDNSYKMDYPEMGLCIIINNKNFHKSTGMTSRSGTDVDAANLRETFRNLKYEVRNKNDLTREEIVELMRDVSKEDHSKRSSFVCVLLSHGEEGIIFGTNGPVDLKKITNFFRGDRCRSLTGKPKLFIIQACRGTELDCGIETDSGVDDDMACHKIPVEADFLYAYSTAPGYYSWRNSKDGSWFIQSLCAMLKQYADKLEFMHILTRVNRKVATEFESFSFDATFHAKKQIPCIVSMLTKELYFYH | – | there was no significant cleavage of proMch4 when incubated with recombinant CPP32 or Mch3 enzymes | –

From US6897296
